{"source": "paper doi:10.1101/517771", "target": "FLAG-BLM (Bloom's Syndrome helicase) (human) (UniProt P54132)", "sequence (P54132 whole entry)": "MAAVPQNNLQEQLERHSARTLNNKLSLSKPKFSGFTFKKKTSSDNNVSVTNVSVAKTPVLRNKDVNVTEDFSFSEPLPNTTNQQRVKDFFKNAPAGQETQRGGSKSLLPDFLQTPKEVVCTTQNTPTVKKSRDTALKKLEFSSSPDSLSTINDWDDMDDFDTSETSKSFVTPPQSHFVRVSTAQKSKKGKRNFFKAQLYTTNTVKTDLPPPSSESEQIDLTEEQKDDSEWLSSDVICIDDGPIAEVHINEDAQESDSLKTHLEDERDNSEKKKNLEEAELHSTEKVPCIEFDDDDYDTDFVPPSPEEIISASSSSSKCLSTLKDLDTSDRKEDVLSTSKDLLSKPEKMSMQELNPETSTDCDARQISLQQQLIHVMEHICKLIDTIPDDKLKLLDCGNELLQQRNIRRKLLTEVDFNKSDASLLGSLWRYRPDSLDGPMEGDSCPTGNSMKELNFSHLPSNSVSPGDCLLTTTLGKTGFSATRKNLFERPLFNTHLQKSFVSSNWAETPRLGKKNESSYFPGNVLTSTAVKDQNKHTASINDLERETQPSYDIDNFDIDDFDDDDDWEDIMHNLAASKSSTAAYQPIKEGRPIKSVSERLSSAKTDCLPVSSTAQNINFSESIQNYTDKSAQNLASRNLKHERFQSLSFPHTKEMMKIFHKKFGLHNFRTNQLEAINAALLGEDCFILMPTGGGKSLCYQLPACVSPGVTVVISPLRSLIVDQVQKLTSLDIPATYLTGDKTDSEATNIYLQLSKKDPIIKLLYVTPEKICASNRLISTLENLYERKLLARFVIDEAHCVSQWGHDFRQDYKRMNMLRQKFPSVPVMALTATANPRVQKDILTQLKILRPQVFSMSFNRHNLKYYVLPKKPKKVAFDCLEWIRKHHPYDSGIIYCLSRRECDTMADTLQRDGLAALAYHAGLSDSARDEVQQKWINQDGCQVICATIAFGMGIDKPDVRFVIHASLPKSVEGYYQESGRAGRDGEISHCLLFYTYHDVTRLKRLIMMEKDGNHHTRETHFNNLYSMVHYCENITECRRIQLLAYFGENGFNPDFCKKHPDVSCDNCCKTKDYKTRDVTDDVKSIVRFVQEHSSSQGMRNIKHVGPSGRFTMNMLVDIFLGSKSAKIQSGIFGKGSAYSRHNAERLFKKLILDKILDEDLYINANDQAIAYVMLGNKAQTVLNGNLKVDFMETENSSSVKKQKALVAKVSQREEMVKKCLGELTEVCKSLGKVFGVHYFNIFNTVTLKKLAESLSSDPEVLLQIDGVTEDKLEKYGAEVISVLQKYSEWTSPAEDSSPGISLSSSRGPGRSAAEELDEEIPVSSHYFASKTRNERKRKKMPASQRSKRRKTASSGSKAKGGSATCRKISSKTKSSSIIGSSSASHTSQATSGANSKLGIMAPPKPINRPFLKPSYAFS"}
{"substance": "phosphorylated human RPA (pRPA) (from UniProt P27694 1-616; P15927 1-270) (complex)", "values": [{"measurement": "fold decrease in BLM/EXO1 resection processivity after addition of pRPA", "value": 3, "unit": "fold"}, {"measurement": "fraction of BLM/DNA2 molecules that stopped resecting DNA upon addition of pRPA", "value": 30, "unit": "%"}]}
